Results as given in patent publication US20190119696A1 (YEDA RESEARCH AND DEVELOPMENT, published 2019).

Target: T1, APS1 (small subunit of ADP-glucose pyrophosphorylase, AGPase; AT5G48300), endogenous in Arabidopsis plants (Arabidopsis thaliana, UniProt P55228 72-520, limits assumed)
T1 construct: Endogenous plant protein
T1 sequence (looked up): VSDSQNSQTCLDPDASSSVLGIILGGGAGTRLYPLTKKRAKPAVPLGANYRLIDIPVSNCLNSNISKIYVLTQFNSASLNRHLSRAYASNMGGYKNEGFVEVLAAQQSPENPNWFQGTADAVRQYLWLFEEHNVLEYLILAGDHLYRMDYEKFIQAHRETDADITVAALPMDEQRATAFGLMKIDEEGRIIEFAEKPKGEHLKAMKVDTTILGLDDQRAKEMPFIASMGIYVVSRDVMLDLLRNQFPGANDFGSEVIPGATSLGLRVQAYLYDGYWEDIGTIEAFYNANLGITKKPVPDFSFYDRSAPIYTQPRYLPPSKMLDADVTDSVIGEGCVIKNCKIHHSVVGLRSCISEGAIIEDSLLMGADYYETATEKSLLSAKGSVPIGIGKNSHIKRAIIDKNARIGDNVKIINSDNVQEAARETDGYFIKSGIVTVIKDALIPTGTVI
Assay: in planta trapping of intermolecular disulfide reaction intermediates; non-reducing SDS-PAGE, anti-HA immunoblot

binding result: no binding
B1: ACHT4ΔC (Arabidopsis ACHT4 lacking the 47-amino acid C-terminus), fused to the HA3 affinity tag (enzyme, not shown: small tags and cut ends)
chain: SSAITAQTTLRIGTAQKWWEKGLKDNMREISSAQELVDSLTNAGDKLVVVDFFSPGCGGCKALHPKICQFAEMNPDVQFLQVNYEEHKSMCYSLGVHVLPFFRFYRGSQGRVCSFSCTNATIKKFRDALAKHGPDRCSLGPTKGLEEKELVALAAN
notes: also called AtACHT4ΔC; AtACHT4-C-Del
